Here are results for 5 molecules from patent US20200247855A1, “THERAPY AND DIAGNOSTICS” (OXFORD UNIVERSITY INNOVATION LIMITED, priority 2017, published 2020).

“Also recorded” adds a separate entry of the source. Like-named read-outs stand apart in the source and are kept apart here.

Assay [1] has as its target CCL11_HUMAN (Homo sapiens, UniProt P51671). Nature of the assay: Yeast surface display (YSD) FACS binding. The gist of the method:
(§1)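 Yeast clones displaying tick peptides were re-tested by FACS with labelled chemokine. Binding = % of peptide-expressing yeast above a background threshold set with streptavidin-Alexa647 alone; the mean percent shift was used where several clones were isolated. Confirmed binding ("YES") required >3-fold over background mean fluorescence intensity.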

Assay [2] has as its target T1, CCL17_HUMAN (Homo sapiens, UniProt Q92583).
T1 sequence (Q92583 24-94): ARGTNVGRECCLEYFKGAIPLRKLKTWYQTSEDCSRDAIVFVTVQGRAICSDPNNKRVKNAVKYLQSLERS
Nature of the assay: Yeast surface display (YSD) FACS binding. The gist of the method:
as §1
(In flow cytometry, cells or beads pass a laser one at a time.)

The target in assay [3] is T2, CCL19_HUMAN (Homo sapiens, UniProt Q99731).
T2 sequence (Q99731 22-98): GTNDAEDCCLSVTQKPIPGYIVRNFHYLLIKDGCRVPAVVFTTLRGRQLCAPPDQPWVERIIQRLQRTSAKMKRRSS
Description: Yeast surface display (YSD) FACS binding. The gist of the method: as §1

Assay [4] has as its target T3, CCL1_HUMAN (Homo sapiens, UniProt P22362).
T3 sequence (P22362 24-96): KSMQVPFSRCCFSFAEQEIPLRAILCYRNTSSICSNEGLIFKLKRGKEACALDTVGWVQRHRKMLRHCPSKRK
Description: Yeast surface display (YSD) FACS binding. The gist of the method: as §1

In assay [5] the target is T4, CCL3_HUMAN (Homo sapiens, UniProt P10147).
T4 sequence (P10147 24-92): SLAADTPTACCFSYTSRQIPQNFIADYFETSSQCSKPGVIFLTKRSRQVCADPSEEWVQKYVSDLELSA
Nature of the assay: Yeast surface display (YSD) FACS binding. The procedure, abridged:
as §1

In assay [6] the target is T5, CCL5_HUMAN (Homo sapiens, UniProt P13501).
T5 sequence (P13501 24-91): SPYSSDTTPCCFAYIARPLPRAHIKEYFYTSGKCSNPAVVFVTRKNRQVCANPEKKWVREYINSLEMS
Nature of the assay: Yeast surface display (YSD) FACS binding. The gist of the method: as §1

The target of assay [7] is T6, CCL4_HUMAN (Homo sapiens, UniProt P13236).
T6 sequence (P13236 24-92): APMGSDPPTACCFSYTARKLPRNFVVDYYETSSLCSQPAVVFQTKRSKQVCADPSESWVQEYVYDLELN
Description: Yeast surface display (YSD) FACS binding. The procedure, abridged:
as §1

The target in assay [8] is T7, CCL8_HUMAN (Homo sapiens, UniProt P80075).
T7 sequence (P80075 24-99): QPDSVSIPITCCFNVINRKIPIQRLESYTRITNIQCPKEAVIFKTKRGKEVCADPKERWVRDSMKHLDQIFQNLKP
Description: Biolayer interferometry (BLI) binding. The conditions noted are these: 300 nM or 600 nM CCL8. The gist of the method: (§2)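 Ni-NTA biosensor loaded with His-tagged tick chemokine-binding protein; 300 nM chemokine cross-binding screen; hits repeated with chemokine dose series; Kd from fitted kinetic and equilibrium data.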
A general note: In BLI a coated tip is dipped into the sample, and binding shifts an interference pattern.

Assay [9] concerns chemokines. The following applies: list of chemokines bound, from the literature [18,20-22], cited from earlier work.
The target of assay [10] is T4, CCL3_HUMAN. The following applies: read-out: Kd, CCL3_HUMAN, previously described evasins; data obtained from publications [20-22,32]; cited from earlier work.
Assay [11] deals with CCL3L1_HUMAN (Homo sapiens, UniProt P16619). The following applies: read-out: Kd, CCL3L1_HUMAN, previously described evasins; data obtained from publications [20-22,32]; cited from earlier work.
CCL3L1_HUMAN, sequence (P16619 24-93): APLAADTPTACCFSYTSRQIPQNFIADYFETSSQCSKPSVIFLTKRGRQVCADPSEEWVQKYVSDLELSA
Assay [12] addresses T6, CCL4_HUMAN. The following applies: read-out: Kd, CCL4_HUMAN, previously described evasins; data obtained from publications [20-22,32]; cited from earlier work.
Assay [13] deals with T8, CCL18_HUMAN (Homo sapiens, UniProt P55774).
T8 sequence (P55774 21-89): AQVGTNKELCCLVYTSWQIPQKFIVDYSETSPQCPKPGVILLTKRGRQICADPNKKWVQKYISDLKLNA
The conditions noted are these: read-out: Kd, CCL18_HUMAN, previously described evasins; data obtained from publications [20-22,32]; cited from earlier work.

Assay [14] has as its target T9, CXCL3_HUMAN (Homo sapiens, UniProt P19876).
T9 sequence (P19876 35-107): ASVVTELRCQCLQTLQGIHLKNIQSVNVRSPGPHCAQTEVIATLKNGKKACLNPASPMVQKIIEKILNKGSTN
Description: Biolayer interferometry (BLI) binding. The procedure, abridged:
as §2

For assay [15], the target named is T10, CXCL1_HUMAN (Homo sapiens, UniProt P09341).
T10 sequence (P09341 35-107): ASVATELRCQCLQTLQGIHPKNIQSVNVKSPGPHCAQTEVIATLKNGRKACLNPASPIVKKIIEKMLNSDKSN
Nature of the assay: Biolayer interferometry (BLI) binding. Details: label (chemical). The procedure:
(§3) Table 1. Tick CKBPs described in PCT/GB2017/050563 and [17]. Tick peptide sequences isolated in yeast surface display fluorescent-activated cell sorting (FACS) screens using a labelled chemokine. Identity with Evasin-1, 4 or 3 was calculated using BLAST. Abbreviations: IXORI—Ixodes ricinus, RHISA—Rhipicephalus sanguineus, AMBMA—Amblyomma maculatum, AMBPA—Amblyomma parvum, AMBTR—Amblyomma triste, AMBAM—Amblyomma americanum, AMBCA—Amblyomma cajennense, RHIPU—Rhipicephalus pulchellus. Table 2A-C. Binding characteristics of tick CKBPs previously disclosed (PCT/GB2017/050563 and [17]). All members of the human chemokine family[164] are listed in column 1. Binding to human chemokines was determined for 14 tick CKBPs using biolayer interferometry (BLI) with calculated Kd shown as Molar (Moles/Litre). […] Association, equilibrium and dissociation data were analysed using Octet software to create corresponding fitted curves, and used to calculate Kd. For yeast surface display, (YSD) background fluorescence was controlled for by using either an empty vector or by omitting the chemokine (i.e. using streptavidin-Alexa647 alone). An arbitrary threshold of >3 fold over background mean fluorescence intensity was chosen to describe confirmed re-tests. Where binding was detected data are indicated as “YES”. […] Data was analysed using GraphPad Prism to determine IC50, which is shown as Molar (Moles/Litre). […]

Assay [16] has as its target T11, CXCL8_HUMAN (Homo sapiens, UniProt P10145).
T11 sequence (P10145 21-99): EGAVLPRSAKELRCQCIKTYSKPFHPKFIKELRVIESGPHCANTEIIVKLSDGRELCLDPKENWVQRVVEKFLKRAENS
Description: Biolayer interferometry (BLI) binding. Details: label (chemical). The method, then:
as §3

Assay [17] has as its target T10, CXCL1_HUMAN. The conditions noted are these: read-out: Kd, CXCL1_HUMAN, previously described evasins; data obtained from publications [20-22,32]; cited from earlier work.
For assay [18], the target named is T11, CXCL8_HUMAN. The conditions noted are these: read-out: Kd, CXCL8_HUMAN, previously described evasins; data obtained from publications [20-22,32]; cited from earlier work.

Usually Kd stands for the concentration at which binding is half-saturated.

CCL11_HUMAN, sequence (P51671 24-97): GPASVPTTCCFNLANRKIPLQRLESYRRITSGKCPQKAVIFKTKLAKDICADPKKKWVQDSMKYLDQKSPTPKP

B1: P1005_AMBMA: tick CKBP, Amblyomma maculatum (protein, listed as Amblyomma maculatum)
chain: EKDTPKNIPGCGDTGTTAAPPADNPKHFAVYTDKHGCTIKVIGTWMTKEDHSRLPVSLRRVRASSGRVMLPASCQKICNDTVKNFPEGTPCRLVTGDPIKGKNHIKDGCIRGYCSSGVCVSDKRNISCYVPPN
As for B1, the “Binding to CCL11_HUMAN, YSD” value in assay [1] is “YES (An arbitrary threshold of >3 fold over background mean fluorescence intensity was chosen to describe confirmed re-tests. Where binding was detected data are indicated as “YES”)”. Further, the “Binding to CCL17_HUMAN, YSD” value in assay [2] is “YES (An arbitrary threshold of >3 fold over background mean fluorescence intensity was chosen to describe confirmed re-tests. Where binding was detected data are indicated as “YES”)”. Besides, the “Binding to CCL19_HUMAN, YSD” value in assay [3] is listed as “YES (An arbitrary threshold of >3 fold over background mean fluorescence intensity was chosen to describe confirmed re-tests. Where binding was detected data are indicated as “YES”)”. In addition, in [4], the “Binding to CCL1_HUMAN, YSD” value is listed as “YES (An arbitrary threshold of >3 fold over background mean fluorescence intensity was chosen to describe confirmed re-tests. Where binding was detected data are indicated as “YES”)”. For the same molecule, the “Binding to CCL3_HUMAN, YSD” value in assay [5] is recorded as “YES (An arbitrary threshold of >3 fold over background mean fluorescence intensity was chosen to describe confirmed re-tests. Where binding was detected data are indicated as “YES”)”. In addition, the “Binding to CCL5_HUMAN, YSD” value in assay [6] is on record as “YES (An arbitrary threshold of >3 fold over background mean fluorescence intensity was chosen to describe confirmed re-tests. Where binding was detected data are indicated as “YES”)”.

B2: P1014_AMBCA: tick CKBP, Amblyomma cajennense (protein)
chain: DIIGGIPGCGDPTTTSAPEVPPKHFAVRTDKDGCTLMIIGTWMTTEDHNRLPPDIGEKRAPYGRVQLPASCKKNCHGKVKNLPNGTPCREVFGDPRRGRKHIKNGCTVGKCQSGLCVTDKRIISCYIPPNITDPIPTHGPWAE
modifications: Amblyomma cajennense
Turning to B2, the “Binding to CCL4_HUMAN, YSD” value in [7] is “YES (An arbitrary threshold of >3 fold over background mean fluorescence intensity was chosen to describe confirmed re-tests. Where binding was detected data are indicated as “YES”)”.

B3: EVASIN1: previously described tick CKBP evasin 1, from Rhipicephalus sanguineus (protein, listed as Rhipicephalus sanguineus)
chain: EDDEDYGDLGGCPFLVAENKTGYPTIVACKQDCNGTTETAPNGTRCFSIGDEGLRRMTANLPYDCPLGQCSNGDCIPKETYEVCYRRNWRDKKN
In the case of B3, the “CCL8 binding (bound or not)” value in assay [8] was “did not”. Besides, the “Previously described chemokine binding” value in assay [9] (listed as EVA1_RHISA) was “CCL3, CCL3L1, CCL4, CCL4L1, CCL14 and CCL18 but not CCL8; also recorded: CCL3, CCL3L1,; also recorded: CCL4, CCL18”. The Kd in assay [10] was 0.1 nM; in [11] it was 0.05 nM; in assay [12] it was 0.5 nM; in [13], 3 nM.

B4: P1156_IXORI: tick CKBP, Ixodes ricinus (protein, listed as Ixodes ricinus)
chain: ADDDNELFTVQYCGMNCTKDEGGTWTGCTGKKEGCKCYHESGKNYGLCLSTEYTDFSQYGNPSDSEIEAAKPKRSDTLSH
As to B4, the Kd in assay [14] was found to be 81 nM; in [15], 3.25 nM; in [16] it was 4.6 nM.

B5: EVASIN3: previously described tick CKBP evasin 3, from Rhipicephalus sanguineus (protein, listed as Rhipicephalus sanguineus)
chain: LVSTIESRTSGDGADNFDVVSCNKNCTSGQNECPEGCFCGLLGQNKKGHCYKIIGNLSGEPPVVRR
With B5, the “Previously described chemokine binding” value in assay [9] is “CXCL1, CXCL8”. Moreover, the Kd is 0.85 nM in assay [17] and 0.43 nM in assay [18].
